T1: FcγRIIa R (human, UniProt P12318 34-217)
T1 construct: extracellular domain; also called FcgRIIa R type; 2aR
T1 sequence (looked up): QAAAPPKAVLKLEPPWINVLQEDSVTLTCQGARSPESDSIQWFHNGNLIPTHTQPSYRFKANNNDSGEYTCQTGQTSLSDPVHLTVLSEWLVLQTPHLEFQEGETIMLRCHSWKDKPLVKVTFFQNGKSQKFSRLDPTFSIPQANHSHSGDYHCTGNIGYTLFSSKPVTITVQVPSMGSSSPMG

T2: FcγRIIb (human, UniProt P31994 43-217)
T2 construct: extracellular domain; also called FcgRIIb; 2b
T2 sequence (looked up): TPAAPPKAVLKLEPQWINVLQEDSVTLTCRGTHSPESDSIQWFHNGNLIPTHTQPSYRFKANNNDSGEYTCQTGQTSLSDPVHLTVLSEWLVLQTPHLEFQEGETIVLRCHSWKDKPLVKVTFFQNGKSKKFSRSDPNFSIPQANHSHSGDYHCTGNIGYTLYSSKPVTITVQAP


Experiments:
FcγRIIa R [1] = target: T1, FcγRIIa R; assay: SPR (Biacore), antibody captured, FcγR as analyte; relative binding
FcγRIIb = target: T2, FcγRIIb; assay: as above
FcγRIIa R [2] = target: T1, FcγRIIa R; assay: SPR; He/Con_2aR divided by He/Con_2b (FcγRIIb as reference)
Method: The heterodimerized antibodies He Abs in which one of the H chains was introduced with an alteration were assayed for their binding activities to each activating FcγR and inhibitory FcγR according to the method described in Example 4. […] The activating FcγRs in FIGS. 26, 27, 28, and 29 are FcγRIa, FcγRIIa (R), FcγRIIa (H), and FcγRIIIa, respectively.
Analysis of interaction between objective antibody and the FcγR was carried out using Biacore T100 (GE Healthcare). HBS-EP+ (GE Healthcare) was used as the running buffer, and the measurement temperature was set to 25° C. Chips produced by immobilizing the antigen peptide by the amine coupling method to a Series S Sencor Chip CM5 (GE Healthcare), or alternatively, chips produced by allowing preliminarily biotinylated antigen peptides to interact with and immobilize onto a Series S Sensor Chip SA (certified) (GE Healthcare) were used. Antibodies of interest were captured onto an antigen peptide-immobilized chip, and allowed to interact to each FcγR diluted with running buffer. To regenerate and repeatedly use the chip, the antibodies captured on the chip were washed off by reacting 10 mM glycine-HCl, pH 1.5.

Row | Binder | He/Con_2aR (IIaR binding) (FcγRIIa R [1]) | He/Con_2b (IIb binding) (FcγRIIb) | IIaR/IIb (He_2aR/2b) (FcγRIIa R [2])
1 | GpH7-A5/GpH7-B3 variant Q295_20W/GpL16-k0 (antibody, human IgG1, kappa, heterodimerized antibody, mutation in the GpH7-B3 chain only; also called He Ab) heavy 1: not shown heavy 2: not shown light: DIVMTQSPLSLPVTPGEPASISCQASESLVHSNRNTYLHWYLQKPGQSPQLLIYKVSNRFSGVPDRFSGSGSGTDFTLKISRVEAEDVGVYYCSQNTHVPPTFGQGTKVEIERTVAAPSVFIFPPSDEQLKSGTASVVCLLNNFYPREAKVQWKVDNALQSGNSQESVTEQDSKDSTYSLSSTLTLSKADYEKHKVYACEVTHQGLSSPVTKSFNRGEC | 60 % of GpH7-A5/GpH7-B3/GpL16-k0 (=100) | 44.4 % of GpH7-A5/GpH7-B3/GpL16-k0 (=100) | 1.35 ratio
2 | GpH7-A5/GpH7-B3 variant S298_01G/GpL16-k0 (antibody, human IgG1, kappa, heterodimerized antibody, mutation in the GpH7-B3 chain only; also called He Ab) heavy 1: not shown heavy 2: not shown light: DIVMTQSPLSLPVTPGEPASISCQASESLVHSNRNTYLHWYLQKPGQSPQLLIYKVSNRFSGVPDRFSGSGSGTDFTLKISRVEAEDVGVYYCSQNTHVPPTFGQGTKVEIERTVAAPSVFIFPPSDEQLKSGTASVVCLLNNFYPREAKVQWKVDNALQSGNSQESVTEQDSKDSTYSLSSTLTLSKADYEKHKVYACEVTHQGLSSPVTKSFNRGEC | 98.8 % of GpH7-A5/GpH7-B3/GpL16-k0 (=100) | 80.1 % of GpH7-A5/GpH7-B3/GpL16-k0 (=100) | 1.23 ratio
3 | GpH7-A5/GpH7-B3 variant Q295_01G/GpL16-k0 (antibody, human IgG1, kappa, heterodimerized antibody, mutation in the GpH7-B3 chain only; also called He Ab) heavy 1: not shown heavy 2: not shown light: DIVMTQSPLSLPVTPGEPASISCQASESLVHSNRNTYLHWYLQKPGQSPQLLIYKVSNRFSGVPDRFSGSGSGTDFTLKISRVEAEDVGVYYCSQNTHVPPTFGQGTKVEIERTVAAPSVFIFPPSDEQLKSGTASVVCLLNNFYPREAKVQWKVDNALQSGNSQESVTEQDSKDSTYSLSSTLTLSKADYEKHKVYACEVTHQGLSSPVTKSFNRGEC | 60.9 % of GpH7-A5/GpH7-B3/GpL16-k0 (=100) | 46 % of GpH7-A5/GpH7-B3/GpL16-k0 (=100) | 1.32 ratio
4 | GpH7-A5/GpH7-B3 variant Q295_04F/GpL16-k0 (antibody, human IgG1, kappa, heterodimerized antibody, mutation in the GpH7-B3 chain only; also called He Ab) heavy 1: not shown heavy 2: not shown light: DIVMTQSPLSLPVTPGEPASISCQASESLVHSNRNTYLHWYLQKPGQSPQLLIYKVSNRFSGVPDRFSGSGSGTDFTLKISRVEAEDVGVYYCSQNTHVPPTFGQGTKVEIERTVAAPSVFIFPPSDEQLKSGTASVVCLLNNFYPREAKVQWKVDNALQSGNSQESVTEQDSKDSTYSLSSTLTLSKADYEKHKVYACEVTHQGLSSPVTKSFNRGEC | 83.6 % of GpH7-A5/GpH7-B3/GpL16-k0 (=100) | 64.7 % of GpH7-A5/GpH7-B3/GpL16-k0 (=100) | 1.29 ratio
5 | GpH7-A5/GpH7-B3 variant P271_20W/GpL16-k0 (antibody, human IgG1, kappa, heterodimerized antibody, mutation in the GpH7-B3 chain only; also called He Ab) heavy 1: not shown heavy 2: not shown light: DIVMTQSPLSLPVTPGEPASISCQASESLVHSNRNTYLHWYLQKPGQSPQLLIYKVSNRFSGVPDRFSGSGSGTDFTLKISRVEAEDVGVYYCSQNTHVPPTFGQGTKVEIERTVAAPSVFIFPPSDEQLKSGTASVVCLLNNFYPREAKVQWKVDNALQSGNSQESVTEQDSKDSTYSLSSTLTLSKADYEKHKVYACEVTHQGLSSPVTKSFNRGEC | 77.3 % of GpH7-A5/GpH7-B3/GpL16-k0 (=100) | 58.1 % of GpH7-A5/GpH7-B3/GpL16-k0 (=100) | 1.33 ratio
6 | GpH7-A5/GpH7-B3 variant Q295_11K/GpL16-k0 (antibody, human IgG1, kappa, heterodimerized antibody, mutation in the GpH7-B3 chain only; also called He Ab) heavy 1: not shown heavy 2: not shown light: DIVMTQSPLSLPVTPGEPASISCQASESLVHSNRNTYLHWYLQKPGQSPQLLIYKVSNRFSGVPDRFSGSGSGTDFTLKISRVEAEDVGVYYCSQNTHVPPTFGQGTKVEIERTVAAPSVFIFPPSDEQLKSGTASVVCLLNNFYPREAKVQWKVDNALQSGNSQESVTEQDSKDSTYSLSSTLTLSKADYEKHKVYACEVTHQGLSSPVTKSFNRGEC | 88.9 % of GpH7-A5/GpH7-B3/GpL16-k0 (=100) | 70.4 % of GpH7-A5/GpH7-B3/GpL16-k0 (=100) | 1.26 ratio

Further lines, results first:

Row | He/Con_2aR (IIaR binding) (FcγRIIa R [1]) | He/Con_2b (IIb binding) (FcγRIIb) | IIaR/IIb (He_2aR/2b) (FcγRIIa R [2]) | Binder
7 | 100 % of GpH7-A5/GpH7-B3/GpL16-k0 (=100) | 83 % of GpH7-A5/GpH7-B3/GpL16-k0 (=100) | 1.21 ratio | GpH7-A5/GpH7-B3 variant H268_11K/GpL16-k0 (antibody, human IgG1, kappa, heterodimerized antibody, mutation in the GpH7-B3 chain only; also called He Ab) heavy 1: not shown heavy 2: not shown light: DIVMTQSPLSLPVTPGEPASISCQASESLVHSNRNTYLHWYLQKPGQSPQLLIYKVSNRFSGVPDRFSGSGSGTDFTLKISRVEAEDVGVYYCSQNTHVPPTFGQGTKVEIERTVAAPSVFIFPPSDEQLKSGTASVVCLLNNFYPREAKVQWKVDNALQSGNSQESVTEQDSKDSTYSLSSTLTLSKADYEKHKVYACEVTHQGLSSPVTKSFNRGEC
8 | 91.2 % of GpH7-A5/GpH7-B3/GpL16-k0 (=100) | 75.7 % of GpH7-A5/GpH7-B3/GpL16-k0 (=100) | 1.2 ratio | GpH7-A5/GpH7-B3 variant Q295_03V/GpL16-k0 (antibody, human IgG1, kappa, heterodimerized antibody, mutation in the GpH7-B3 chain only; also called He Ab) heavy 1: not shown heavy 2: not shown light: DIVMTQSPLSLPVTPGEPASISCQASESLVHSNRNTYLHWYLQKPGQSPQLLIYKVSNRFSGVPDRFSGSGSGTDFTLKISRVEAEDVGVYYCSQNTHVPPTFGQGTKVEIERTVAAPSVFIFPPSDEQLKSGTASVVCLLNNFYPREAKVQWKVDNALQSGNSQESVTEQDSKDSTYSLSSTLTLSKADYEKHKVYACEVTHQGLSSPVTKSFNRGEC

Reference: US20180155451A1 (published 2018)
